# The nanobody polyreactivity screen of Harvey et al. (2022)
# Test: yeast display, Sf9 membrane polyspecificity reagent, FACS + sequencing; frameworks hold sequencing errors
# Method in brief: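 Galactose induction of a Saccharomyces cerevisiae BJ5465 synthetic nanobody display library ran 36–48 hours. The cells were then stained for 1 hour at 4 °C with 10% biotinylated, detergent-solubilized Sf9 membrane reagent, pulled down on streptavidin microbeads and FACS-sorted into low and high (top ~1%) gates on expression and reagent-binding fluorescence. Labels for polyreactivity follow the gate of origin.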
row,Sequence,polyreactivity (PSR sort gate)
1,QVQLVDSGGGLVQAGGSLRLSCAASGFTIPTYAMGWYRQAPGKERELVAAISGDGDSTYYADSVKGRFTISRDNAKNTVYLQMNSLKPEDTAVYYCAAEPNVYFSVFVLFPSDYWGQGTQVTVSS,low polyreactivity
2,QVQLVDSGGGLVQAGGSLRLSCAASGITFYVNAMGWYRQAPRKERELVASISTGGSTNYADSVKGRFTISRDNAKNTVYLQMNSLKPEDTAVYYCAARVDYHPSLRDYWGQGTQVTVSS,low polyreactivity
3,QVQLVDSGGGLVQAGGSLRLSCAASGITSHYYAMGWYRQAPGKERELVAAITSSGSTYYADSVKGRFTISRDNAKNTVYLQMNSLKPEVTAVYYCATTVWYKKAPYPDGDYWGQGTQVTVSS,low polyreactivity
4,QVQLVDSGGGLVQAGGSLRLSCAASGLIFEVYAMGWYRQAQGKERELVAAISWRGGSTDYADSVKGRFTISRDNAKNTVYLQMNSLKPEDTAFYYCAKGYRGRTTAGNLWEFDYWGQGTQVTVSS,high polyreactivity
5,QVQLVDSGGGLVQAGGSLRLSCAASGLIFKLNAMGWYRQAPGKERELVAAIRASTGSTYYADSVKGRFTISRDNAKNTVYLQMNSLKPEDTADYYCAVRLRWYFFLMDYWGQGTQVTVSS,high polyreactivity
6,QVQLVDSGGGLVQAGGSLRLSCAASGLIFPYNAMGWYRQAPGKERELVAAIDSGVTTYYADSVKGRFTISRDNAKNTVYLQMNSLKPEDTAVYYCAAVGLPGPEGDSWGQGTQVTVSS,low polyreactivity
7,QVQLVDSGGGLVQAGGSLRLSCAASGLTFYHYTMGWYRQAPGKERELVPAITKNGGSTYYADSVKGRFTISRDNAKNTVYLQMNSLKPEDSAVYYCAAYEFGLLRYYSGRSYYYWGQGTQVTVSS,high polyreactivity
8,QVQLVDSGGGLVQAGGSLRLSCAASGNTFGINDMGWYRKAPGKERELVAAIRISGGSTYYADSVKGRFTISRDNAKNTVYLQMNSLKPEDTAVYYCAKYGPRASLYRTGRYYWGQGTQVTVSS,high polyreactivity
9,QVQLVDSGGGLVQAGGSLRLSCAASGNTFRYYVMGWYRQAPGKERELVAASTSSGGNTYYADSVKGRFTISRDNAKNTVYLQMNSLKPEDTAVYYCAASYDINYYFSDYNYWGQGTQVTVSS,high polyreactivity
10,QVQLVDSGGGLVQAGGSLRLSCAASGRIFGRYAMGWSRQAPGKESELVASITYRGGGTYYADSVKGRFTISRDNAKNTVYLQMNSLKPEDTAVYYCNAYFAGVLRRNYRGQGTQVTVSS,high polyreactivity
11,QVQLVDSGGGLVQAGGSLRLSCAASGRIFIGYAMGWNRQAPWRERELVAAITSGGGTYYADSVKARFTISRDNAKNTVYLQMNSLKPEDTAVYFCAGAQRYPIKYYFWGQGTQVTVSS,low polyreactivity
12,QVQLVDSGGGLVQAGGSLRLSCAASGRIFYAYAMGGYRQAPGKERELVARISASGGNTYYADSVKGRFTISRDNAKNSVYLQMNSLKPEDTAVYYCNKLFWYGRQYDYWGQGTQVTVSS,high polyreactivity
13,QVQLVDSGGGLVQAGGSLRLSCAASGRIFYSNAMGWYRQAPGKVRELVAAITTSGASTYYADSVKGRFTISRDNAKNTVYLQLISMKPEDTAVYYCATYAVVYPFAMDYWGQGTQVTVSS,low polyreactivity
14,QVQLVDSGGGLVQAGGSLRLSCAASGRIFYYYAMGWYRQAPGKERELVAAISWNGGTTYYAESVKGRFTISRDNAKNTVYLQINSLKPEDTAVYYCNAVLYRGPPGSRMDYWGQGTQVTVSS,high polyreactivity
15,QVQLVDSGGGLVQAGGSLRLSCAASGRISSQYAMGWYRQAPGKERELVAAISTSGDRTYYADSVKGRFTISRDNAKNTVYLQMNSLKPEDTAVYYCAKDGPYTYGRDISEYWGQGTQVTVSS,low polyreactivity
16,QVQLVDSGGGLVQAGGSLRLSCAASGRTCYTNAMGWYRQAPGKERELVAAINRSGGSTYYADSVKGRFTISRDNAKNTVYLQMNSLKPEDTAVYYCNKAFTHTKYLSPIAYEYGYWGQGTQVTVSS,low polyreactivity
17,QVQLVDSGGGLVQAGGSLRLSCAASGRTFAFNYAMGWYRQAPGKERELVAAISSSGTRTRYADSVKGRFTISRDNAKNTVYLQMNSLKPEDTAVYYCSKRSLGIGRSNYWGQGTQVTVSS,high polyreactivity
18,QVQLVDSGGGLVQAGGSLRLSCAASGRTFGAYAMGWYRQAPGKERELVATITVSGGSTYYADSVKGRFTISRDNAKNTVYLQMNSLKPEDSAVYYCAAAYDWWQFYSWTIAYDYWGQGTQVTVSS,low polyreactivity
19,QVQLVDSGGGLVQAGGSLRLSCAASGRTFLFNSMGWYRQATGKQRELVAGITWSSGSTYYADSVKGRITISRDNAKNTVYLQMNSLKPEDTAVYYCAAYHFHDNDYWGQGTQVTVSS,low polyreactivity
20,QVQLVDSGGGLVQAGGSLRLSCAASGRTFPSYGMGWYRQAPGKERELVAPITGGGSTYYADSVKGRFTISRDNAKNTVYLQINSLKPEDTAVYYCAKRPYYNRHYHYRSKYDYWGLGTQVTVSS,high polyreactivity

row,Sequence,polyreactivity (PSR sort gate)
1,QVQLVDSGGGLVQAGGSLRLSCAASGRTFRLNDMGWYRQAPGKDRELVAAITRSGGSTYYADSVKGRFTISRDNAKNTVYFQMNSLKPEDTAVYYCNAVRSRYYDDYDYWGQGTQVTVSS,high polyreactivity
2,QVQLVDSGGGLVQAGGSLRLSCAASGRTFRSYAMGWYRQAPGKERELVAAITWNGGGTYYADSVKGRFTMSRDNAKNTVYLQMNSLKPEETAVYYCAGRGRTDSYWRFYHWGQGTQVTVSS,high polyreactivity
3,QVQLVDSGGGLVQAGGSLRLSCAASGRTFRTNAMGWYRQAPGKERELVAAISSNGGTTYYADSVKGRFTISRDNAKNTVYLQMNSLKPEDTAVYYCNIESQYLWPEFDYWGQGTQVTVSS,low polyreactivity
4,QVQLVDSGGGLVQAGGSLRLSCAASGRTFTWYAMGWYRQAPGKERELVSAITNGGRTYADSVKGRFTISRDNAKNTVYLQMNSLKPEDTAVYYCAKVQYRGYLPHQRGRERDYDYWGQGTQVTVSS,low polyreactivity
5,QVQLVDSGGGLVQAGGSLRLSCAASGRTIATYTQGWYRHAPGKERELVAAISKSGGSTYYADSVKGRFTISRDNAKNTVYLQMNSLKTEDTAVYYCAKRRSGNVRKYDYWGQGTQVTVSS,high polyreactivity
6,QVQLVDSGGGLVQAGGSLRLSCAASGRTIYLYAMACYRQAPGKERELVAAISERGGRTYYADSVKGRFTISRDNAKNTVYLQMNSLKPEDTAVYYCAAVKGYNYGYWGQGTQVTVSS,high polyreactivity
7,QVQLVDSGGGLVQAGGSLRLSCAASGSIFNVYAMGWYRQAPGKERELVAAITGSGGRTYYADSVKGRFTISRDNAKNTVYLQMNSLKPEDTAVYYCAATTRPGYRYEGDYWGQGTQVTVSS,low polyreactivity
8,QVQLVDSGGGLVQAGGSLRLSCAASGSIFPGNPMGWYRQAPGKERELVAVIDFSGASTYYADSVKGRFTISRDNAKNTVYFQMNSLKPEDTADYWGQCTQVTVSS,low polyreactivity
9,QVQLVDSGGGLVQAGGSLRLSCAASGSIFSKYAMGGYRQAPGKERELVAAISGSGVSTYYADSVKGRFTISRDNAKNTVFLQMNSLKTEDTAVYYCNARGSFHQPRYGYWGQGTQVTVSS,high polyreactivity
10,QVQLVDSGGGLVQAGGSLRLSCAASGSIFSVYSMGGNRQATGKERELVASISRTGTTNYADSVKGSFTISRDNAKNTVYLQMNSLKPEDTAVFYCATDFTDWDVFLIKEFGYDYWGQGTQVTVSS,low polyreactivity
11,QVQLVDSGGGLVQAGGSLRLSCAASGSIFVGNAMGWYRQAPGKERELVAAITSSGGRTYYADSVKGRFTISRDNAKYTVYLQMNSLKAEDTSVYYCNTSRTRRFSLWDYDYWGQGTQVSVSS,high polyreactivity
12,QVQLVDSGGGLVQAGGSLRLSCAASGSIFVKYAMGCYRQAPGKERELVAAISGSGGSTYYADSVKGRFTISRDNAKNTVSLQMNSLKPEDTAVYYCAADDYFYSGRYGFEFWGQGTQVTVSS,low polyreactivity
13,QVQLVDSGGGLVQAGGSLRLSCAASGSIFYWYAMGWYRQAPGKERELVAAISWSGGSTFYADSVKGRFTISRDNAKNTVYLQMNSLKPEDTAVYYCAAETPYDYDYWGQGTQVTVSS,high polyreactivity
14,QVQLVDSGGGLVQAGGSLRLSCAASGSIFYYNAMGWYRPAPGKERELVAAITSSGGSTYYADSVKGRFTISRDNAKNTVYLQMNSLKPEDTAVYYCYAGATALRYRPYSSAYDYWGQGTQVTVSS,low polyreactivity
15,QVQLVDSGGGLVQAGGSLRLSCAASGSILVYYAMGWYRQAPGKERELVAAISSGGSTNYADSVKGRFTISRDNANNTVYLKINSLKPEDTAVYYCAKPDRTGWLEGDYWGQGTQVSVSS,low polyreactivity
16,QVQLVDSGGGLVQAGGSLRLSCAASGSNFDDYAMGWYRQAPGKERELVAAISSSGTSTYYADSVKGRFTISRDNAKNTVYLQMNSLKPEDTAVYYCAAKKKYHYVASYKRFEYWGQGTQVTVSS,low polyreactivity
17,QVQLVDSGGGLVQAGGSLRLSCAASGSNFGTYAMGWYRQAPGKERELVAAITTNGVSTYYADSVKGRFTISRDNAKNTVYLQMNSLKPEDTAVYYCAAPIQAWVRHLADIRYDYWGQGTQVTVSS,low polyreactivity
18,QVQLVDSGGGLVQAGGSLRLSCAASGSTFDAYAMGWYRQAPGKERELVAGISSGGSYEYAESVKGRFTISRDNAKNTVYVQMNSLKPEDTAVYYCAADSRQSDYYYQPTKFDYWGQGTQVTVSS,low polyreactivity
19,QVQLVDSGGGLVQAGGSLRLSCAASGSTFESYAMGWDRQAPGKERELVAAISTNGGRTRYADSVKGRFTISRDNAKNTVYLQMNSLKPVDTAVYYCATYVRGVYASSGYDYWGQGTQVTVSS,high polyreactivity
20,QVQLVDSGGGLVQAGGSLRLSCAASGSTFGPYAMGWYRQAPGKERELVAAISGSGGTTYYADSVKGRFTMSRDNSKNTVYLQMNSLKPEDTAVYDCAAYPRWTYWGYVERYYWGQGTQVTVSS,high polyreactivity
